Test results from patent publication US9314499.

Target: T1, Histidine-tagged recombinant human Annexin A2
T1 chain: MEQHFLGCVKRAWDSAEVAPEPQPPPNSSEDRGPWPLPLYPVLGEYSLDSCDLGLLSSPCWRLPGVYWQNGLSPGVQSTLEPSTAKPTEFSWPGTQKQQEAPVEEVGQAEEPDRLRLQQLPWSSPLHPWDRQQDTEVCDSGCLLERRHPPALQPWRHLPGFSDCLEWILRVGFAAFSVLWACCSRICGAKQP

B1: tissue plasminogen activator (protein)
chain: SYQVICRDEKTQMIYQQHQSWLRPVLRSNRVEYCWCNSGRAQCHSVPVKSCSEPRCFNGGTCQQALYFSDFVCQCPEGFAGKCCEIDTRATCYEDQGISYRGTWSTAESGAECTNWNSSALAQKPYSGRRPDAIRLGLGNHNYCRNPDRDSKPWCYVFKAGKYSSEFCSTPACSEGNSDCYFGNGSAYRGTHSLTESGASCLPWNSMILIGKVYTAQNPSAQALGLGKHNYCRNPDGDAKPWCHVLKNRRLTWEYCDVPSCSTCGLRQYSQPQFRIKGGLFADIASHPWQAAIFAKHRRSPGERFLCGGILISSCWILSAAHCFQERFPPHHLTVILGRTYRVVPGEEEQKFEVEKYIVHKEFDDDTYDNDIALLQLKSDSSRCAQESSVVRTVCLPPADLQLPDWTECELSGYGKHEALSPFYSERLKEAHVRLYPSSRCTSQHLLNRTVTDNMLCAGDTRSGGPQANLHDACQGDSGGPLVCLNDGRMTLVGIISWGLGCGQKDVPGVYTKVTNYLDWIRDNMRP
tPA-converted plasmin generation (in vitro plasmin activity assay, fluorogenic substrate D-Val-Leu-Lys-AMC): a combination of rA2 (5 µg/ml) and tPA (2.5 µg/ml) significantly amplified tPA-converted plasmin generation
